This data set concerns the molecule itself. Put plainly: cross-linking; intact doxycycline-induced HT1080 cells in 1x PBS treated with 0.2 mM EGS (membrane-permeable) for 30 min at room temperature, lysed in LDS sample buffer, Western blot with anti-RFP antibody. For orientation: Immunoblotting shows a protein as a band on a membrane.

B1: TagRFP/TRIM69 V95A L96A double mutant (natural protein, human, UniProt Q86WT6 1-500, looked up)
chain: MEVSTNPSSNIDPGDYVEMNDSITHLPSKVVIQDITMELHCPLCNDWFRDPLMLSCGHNFCEACIQDFWRLQAKETFCPECKMLCQYNNCTFNPAADKLVEKIKKLPLLKGHPQCPEHGENLKLFSKPDGKLICFQCKDARLSVGQSKEFLQISDAVHFFTEELAIQQGQLETTLKELQTLRNMQKEAIAAHKENKLHLQQHVSMEFLKLHQFLHSKEKDILTELREEGKALNEEMELNLSQLQEQCLLAKDMLVSIQAKTEQQNSFDFLKDITTLLHSLEQGMKVLATRELISRKLNLGQYKGPIQYMVWREMQDTLCPGLSPLTLDPKTAHPNLVLSKSQTSVWHGDIKKIMPDDPERFDSSVAVLGSRGFTSGKWYWEVEVAKKTKWTVGVVRESIIRKGSCPLTPEQGFWLLRLRNQTDLKALDLPSFSLTLTNNLDKVGIYLDYEGGQLSFYNAKTMTHIYTFSNTFMEKLYPYFCPCLNDGGENKEPLHILHPQ
notes: also called multimerization-defective mutant of TRIM69; not shown: TagRFP, N-terminal, kept
A word on the stoichiometry N: it is the number of molecules, sites or subunits per partner or assembly. As to B1, the “stoichiometry N” value is 2.

B2: TagRFP/TRIM69 L99A single mutant (natural protein, human, UniProt Q86WT6 1-500, looked up)
chain: MEVSTNPSSNIDPGDYVEMNDSITHLPSKVVIQDITMELHCPLCNDWFRDPLMLSCGHNFCEACIQDFWRLQAKETFCPECKMLCQYNNCTFNPVLDKAVEKIKKLPLLKGHPQCPEHGENLKLFSKPDGKLICFQCKDARLSVGQSKEFLQISDAVHFFTEELAIQQGQLETTLKELQTLRNMQKEAIAAHKENKLHLQQHVSMEFLKLHQFLHSKEKDILTELREEGKALNEEMELNLSQLQEQCLLAKDMLVSIQAKTEQQNSFDFLKDITTLLHSLEQGMKVLATRELISRKLNLGQYKGPIQYMVWREMQDTLCPGLSPLTLDPKTAHPNLVLSKSQTSVWHGDIKKIMPDDPERFDSSVAVLGSRGFTSGKWYWEVEVAKKTKWTVGVVRESIIRKGSCPLTPEQGFWLLRLRNQTDLKALDLPSFSLTLTNNLDKVGIYLDYEGGQLSFYNAKTMTHIYTFSNTFMEKLYPYFCPCLNDGGENKEPLHILHPQ
notes: as for B1
B2: the “stoichiometry N” value came to 2.
